Experimental data from PMC12311895 (2025).
Where no end group is shown, it is not given here.

Molecular target: T1, MBP-PDZ protein (Erbin PDZ) with a single cysteine, conjugated to DNA (UniProt Q96RT1 1321-1410, ATTO 532 (labelled with ATTO 532-NHS); amine-modified DNA oligonucleotide coupled through sulfo-SMCC to the single cysteine between MBP and PDZ)
T1 chain: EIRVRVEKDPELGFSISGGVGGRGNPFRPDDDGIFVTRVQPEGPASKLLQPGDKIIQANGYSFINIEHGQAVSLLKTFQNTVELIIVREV
Assay: FP; no DNA attached to MBP-PDZ

- Kd: 200 nM
Binder: CGAGRGSIDTWV (also: ATTO 655 label (site not given here)) [ATTO 655-labeled target peptide]
